From patent US10640563B2, “Anti-B7-H3 antibodies and antibody drug conjugates” (AbbVie Inc., priority 2016, dated 2020)

T1: B7-H3 (Homo sapiens, UniProt Q5ZPR3)
T1 construct: His tag (6xHis) (C); made in house
T1 sequence (Q5ZPR3 with tags, fused parts or gaps): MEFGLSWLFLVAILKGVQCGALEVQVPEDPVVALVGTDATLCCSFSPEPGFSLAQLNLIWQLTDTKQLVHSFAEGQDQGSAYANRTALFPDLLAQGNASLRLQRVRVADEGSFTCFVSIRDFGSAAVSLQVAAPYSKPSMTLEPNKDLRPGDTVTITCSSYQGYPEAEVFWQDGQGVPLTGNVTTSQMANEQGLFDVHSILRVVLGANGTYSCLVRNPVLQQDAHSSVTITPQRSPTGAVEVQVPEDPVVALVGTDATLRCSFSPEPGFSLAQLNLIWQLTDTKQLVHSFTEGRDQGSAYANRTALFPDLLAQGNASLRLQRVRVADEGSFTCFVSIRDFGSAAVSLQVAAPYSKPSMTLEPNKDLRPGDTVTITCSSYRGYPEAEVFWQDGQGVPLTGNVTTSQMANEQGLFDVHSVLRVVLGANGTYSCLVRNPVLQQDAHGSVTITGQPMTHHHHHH

T2: soluble ECD of human B7-H3 (Homo sapiens, UniProt Q5ZPR3)
T2 construct: His tag (6xHis) (C); made in house
T2 sequence (Q5ZPR3 with tags, fused parts or gaps): T1 sequence (Q5ZPR3 with tags, fused parts or gaps)

B1: huAb3v2-CZ (conjugate)
VH: EVQLVQSGAEVKKPGSSVKVSCKASGYTFSSYWMHWVRQAPGQGLEWIGLIHPDSGSTNYNEMFKNRATLTVDRSTSTAYMELSSLRSEDTAVYYCAGGGRLYFDYWGQGTTVTVSS
VL: DIVMTQSPLSLPVTPGEPASISCRSSQSLVHSNGDTYLRWYLQKPGQSPQLLIYKVSNRFSGVPDRFSGSGSGTDFTLKISRVEAEDVGVYYCSQSTHVPYTFGGGTKVEIK
B2: Ab12: murine anti-B7-H3 mAb (mouse hybridoma derived) (antibody, V domains shown)
VH: EVQLVESGGGLVKPGGSLKLSCAASGFTFSSYAMSWVRQTPEKRLEWVATISSGTNYTYYPDSVKGRFTISRDNAKNTLYLQMTSLRSEDTAMYYCARQGRYSWIAYWGQGTLVTVSA
VL: DIVLTQSPASLAVSLGQRATISCRASKSVSTSDYSYMHWNQQKPGQPPKLLIYLASNLESGVPARFSGSGSGTDFTLNIHPVEEEDAATYYCQHSRELLTFGAGTKLELK
B3: Ab4: murine anti-B7-H3 mAb (mouse hybridoma derived) (antibody, V domains shown)
VH: QVQLQQPGAELVKPGASVKLSCKASGYSFTSYWMHWVKQRPGQGLEWIGMIHPNSGSNNYNEKFKSKATLTVDKSSNTAYMQLSSLTSEDSAVYYCARRLGLHFDYWGQGTTLTVSS
VL: DIVMTQSQKFMSTPVGDRVSITCKASQNVGTAVAWYQQKPGQSPKLLIYSASNRYTGVPDRFTGSGSGTDFTLTISNMQSEDLADYFCQQYSSYPYTFGGGTKLEIK
B4: Ab11: murine anti-B7-H3 mAb (mouse hybridoma derived) (antibody, V domains shown)
VH: EVKLVESGGGLVQPGGSLRLSCATSGFTFTNYYMSWVRQPPGKALEWLGFIRNKANDYTTEYSASVKGRFTISRDNSQSILYLQMNTLRAEDSATYYCARESPGNPFAYWGQGTLVTVSA
VL: DIVMTQSPSSLTVTAGEKVTMTCKSSQSLLNSGTQKNFLTWYQQKPGQPPKLLIYWASTRESGVPDRFTGSGSGTDFTLTISSVQAEDLAVYFCQNDYIYPLTFGAGTKLELK
B5: Ab3: murine anti-B7-H3 mAb (mouse hybridoma derived) (antibody, V domains shown)
VH: QVQLQQPGAELVKPGASVKLSCKASGYTFSSYWMHWVKQRPGQGLEWIGLIHPDSGSTNYNEMFKNKATLTVDRSSSTAYVQLSSLTSEDSAVYFCAGGGRLYFDYWGQGTTLTVSS
VL: DVVMTQTPLSLPVSLGDQASISCRSSQSLVHSNGDTYLRWYLQKPGQSPKLLIYKVSNRFSGVPDRFSGSGSGTDFTLKITRVEAEDLGVYFCSQSTHVPYTFGGGTKLEIK
B6: Ab8: murine anti-B7-H3 mAb (mouse hybridoma derived) (antibody, V domains shown)
VH: EVKLVESGGGLVKPGGSLKLSCAASGFTFSSYGMSWVRQTPEKRLEWVATISGGGNYTYCPDSVKGRFTISRDNAKNNLYLQMSSLRSEDTALYYCTRQRGYDYHYAMDFWGQGTSVTVSS
VL: DIQMTQSPASLSVSVGETVTITCRASENIYSNLAWHQQKQGKSPQLLVYAATNLADGVPSRFSGNGSDTQYSLKINSLQSEDFGSYFCQNFWGTSWTFGGGTKLEIK
B7: Ab5: murine anti-B7-H3 mAb (mouse hybridoma derived) (antibody, V domains shown)
VH: QVQLQQPGDELVKPGASVKLSCKTSGYTFTTDWMHWVKQRPGQGLEWIGMIHPNSGTTNYNEKFKSKAALTVDKSSSTACMQLSSLTSEDSAVYYCARSYWKWYFDVWGTGTTVTVSS
VL: QIVLTQSPAIMSASLGEEITLTCSASSSVSYMHWYQQKSGTSPKLLIYSTSNLASGVPSRFSGSGSGTFYSLTISSVEAEDSADYYCHQWTSYMYTFGGGTKLEIK

Tested on: NCI-H146 cells
Assay: In vivo xenograft model of small cell lung cancer (NCI-H146)
Parameters: species or system mice
Conditions: Table 15; 6 mg/kg/IP/QDx1

**Q.** For B1, which “TGD (%)” value is on record?
**A.** Its value is 52%.

**Q.** And the “TGImax (%)” value?
**A.** Its value is 83%.

Molecular target: T1, B7-H3
Assay: Pair-wise SPR binding assay for epitope grouping
Conditions: simultaneous binding assay, 12° C.
Source text: Pair-wise binding assays performed on Biacore T200 SPR instruments were used to determine the relative epitope grouping for the murine anti-B7-H3 mAbs as described in the methods below. […] Epitope groups are represented as individual ovals, some of which overlap with each other. Antibodies in different epitope groups can bind to B7-H3 simultaneously and likely bind to different epitopes while antibodies within a given epitope group cannot bind to B7-H3 simultaneously and likely bind to overlapping epitopes. The grouping information was derived from a simultaneous binding assay as described in materials and methods. Ab3, Ab4, Ab5, Abl 1, Ab12, and Ab8 groupings were ambiguous.
Pair-wise binding assays performed on Biacore T200 SPR instruments were used to determine the relative epitope grouping for a series of anti-B7-H3 mAbs. The assay format was Fc-based capture via immobilized anti-mouse(Fc) (Pierce 31170) or immobilized anti-human (Fc) (Pierce 31125). A standard amine coupling protocol was employed to immobilize the capture reagents via primary amines to the carboxy-methyl (CM) dextran surface of CM5 sensorchips (Biacore); capture antibodies were coupled to a level of approximately 2000 RU. Epitope grouping measurements were done at 12° C. (low temperature allows for grouping information on fast off-rate mAbs), the assay buffer was HBS-EP+(Biacore): 10 mM Hepes, pH7.4, 150 mM NaCl, 3 mM EDTA, 0.05% polysorbate 20. Each assay cycle consisted of the following steps in a four flowcell system: 1) separate test mAbs were captured in flowcells 2, 3 & 4 (flowcell 1 was reference, no test mAb); 2) all 4 flowcells were then blocked by injection with isotype control mAb or isotype mAb cocktail at 50 μg/mL; 3) all 4 flowcells were then injected with antigen or buffer only (buffer only is for double referencing, done for each mAb pair individually); 4) all 4 flowcells were then injected with 2nd test mAb at 10 μg/mL; 5) all 4 flowcells were then regenerated with glycine, pH1.5. The assay was done for each test mAb pair in reciprocal orientations. Simultaneous binding was evaluated examining the ratio of the 2nd test mAb response to the Ag response (RUmAb2/RUAg); if this ratio was equal to or greater than 0.2 the interaction was scored as a simultaneous binder. From this pair-wise binding assay data a “venn” style diagram was constructed manually to depict relative epitope groupings.

**Q.** Which “relative human B7-H3 epitope grouping” value does the source give for B2 here?
**A.** The value was “ambiguous”.

**Q.** Which “relative human B7-H3 epitope grouping” value does the source give for B3 here?
**A.** The value was “ambiguous”.

**Q.** With B4 as the molecule, how does the “relative human B7-H3 epitope grouping” value read?
**A.** The value was “ambiguous”.

**Q.** With B5 as the molecule, how does the “relative human B7-H3 epitope grouping” value read?
**A.** The value was “ambiguous”.

**Q.** With B6 as the molecule, how does the “relative human B7-H3 epitope grouping” value read?
**A.** Its value is “ambiguous”.

**Q.** Which “relative human B7-H3 epitope grouping” value does the source give for B7 here?
**A.** The value was “ambiguous”.

Tested on: not listed separately
Assay: Aggregation of conjugates by SEC
Assay type: physicochemical
Conditions: Table 14; CZ conjugates of Ab3 variants

**Q.** With B1 as the molecule, how does the “% agg by SEC” value read?
**A.** Its value is 10.1%.

Molecular target: T2, soluble ECD of human B7-H3
Assay: Biacore T200 SPR binding kinetics, mAb capture
Conditions: Biacore T200, Fc capture of mAb, B7-H3 ECD as analyte, 1:1 binding model
Experimental: The binding affinity of the purified anti-B7-H3 monoclonal antibodies was determined by surface […]. […] The binding kinetics were derived from SPR measurements using a Biacore T200 instrument and a mAb capture approach (as described in the materials and methods below).
Biacore T200 SPR instruments were used to measure the binding kinetics of human B7-H3 (analyte) binding to various mAbs (ligands). The assay format was Fc-based capture via immobilized anti-mouse (Fc) (Pierce 31170) or immobilized anti-human (Fc) (Pierce 31125). A standard amine coupling protocol was employed to immobilize the capture reagents via primary amines to the carboxy-methyl (CM) dextran surface of CM5 sensorchips (Biacore); capture antibodies were coupled to a level of approximately 5000 RU. For binding kinetic measurements the assay buffer was HBS-EP+ (Biacore): 10 mM Hepes, pH7.4, 150 mM NaCl, 3 mM EDTA, 0.05% polysorbate 20. During the assay, all measurements were referenced against the capture surface alone. Each assay cycle consisted of the following steps: 1) Capture of ligand to approximately 50 RU; 2) Analyte injection over both reference and test surface, 240 μL at 80 μL/min, after which the dissociation was monitored for 900 seconds at 80 μL/min; 3) Regeneration of capture surface with low pH glycine. For kinetic determinations analyte injections were 3-point, 9-fold dilution series of 900 nM, 100 nM and 11.11 nM, buffer only injections were included for secondary referencing. Data were processed and fit to a 1:1 binding model using Biacore T200 Evaluation Software to determine the binding kinetic rate constants, ka (on-rate) and kd (off-rate), and the equilibrium dissociation constant (affinity, KD).

**Q.** With B2 as the molecule, how does the “huB7-H3 ka” value read?
**A.** The value was 38000 M⁻¹ s⁻¹.

**Q.** And the “huB7-H3 kd” value?
**A.** Its value is 0.00025 s⁻¹.

**Q.** Which “huB7-H3 ka” value does the source give for B3 here?
**A.** The value was 690000 M⁻¹ s⁻¹.

**Q.** And the “huB7-H3 kd” value?
**A.** Its value is 0.0011 s⁻¹.

**Q.** With B4 as the molecule, how does the “huB7-H3 ka” value read?
**A.** The value was 20000 M⁻¹ s⁻¹.

**Q.** And the “huB7-H3 kd” value?
**A.** The value was 0.00089 s⁻¹.

**Q.** For B5, which “huB7-H3 ka” value is on record?
**A.** The value was 520000 M⁻¹ s⁻¹.

**Q.** And the “huB7-H3 kd” value?
**A.** Its value is 0.01 s⁻¹.

**Q.** Which results are given for B6?
**A.** huB7-H3 ka: 58000 M⁻¹ s⁻¹; huB7-H3 kd: 9.9e-05 s⁻¹

**Q.** With B7 as the molecule, how does the “huB7-H3 ka” value read?
**A.** Its value is 1.3e+06 M⁻¹ s⁻¹.

**Q.** What about the “huB7-H3 kd” value of the same molecule?
**A.** Its value is 0.012 s⁻¹.

Tested on: H847 cells
Assay: Cell cytotoxicity of ADCs in H847 cells
Assay type: cell-based
Conditions: Table 17; CZ conjugates; read-out: Cytotoxicity (H847 Cell line IC50)
Source text: These new anti-B7-H3 antibodies were further characterized for binding by SPR and conjugated to the Bcl-xLi synthon CZ and assessed for cell cytotoxicity (using the methods described in Example 7).

**Q.** With B1 as the molecule, how does the IC50 read?
**A.** Its IC50 is 1.49 nM.

Tested on: soluble ECD of cyno B7-H3
Assay: Biacore T200 SPR binding kinetics, mAb capture
Parameters: species or system cynomolgus monkey
Conditions: Biacore T200, Fc capture of mAb, B7-H3 ECD as analyte, 1:1 binding model

soluble ECD of cyno B7-H3, sequence (as listed by the source): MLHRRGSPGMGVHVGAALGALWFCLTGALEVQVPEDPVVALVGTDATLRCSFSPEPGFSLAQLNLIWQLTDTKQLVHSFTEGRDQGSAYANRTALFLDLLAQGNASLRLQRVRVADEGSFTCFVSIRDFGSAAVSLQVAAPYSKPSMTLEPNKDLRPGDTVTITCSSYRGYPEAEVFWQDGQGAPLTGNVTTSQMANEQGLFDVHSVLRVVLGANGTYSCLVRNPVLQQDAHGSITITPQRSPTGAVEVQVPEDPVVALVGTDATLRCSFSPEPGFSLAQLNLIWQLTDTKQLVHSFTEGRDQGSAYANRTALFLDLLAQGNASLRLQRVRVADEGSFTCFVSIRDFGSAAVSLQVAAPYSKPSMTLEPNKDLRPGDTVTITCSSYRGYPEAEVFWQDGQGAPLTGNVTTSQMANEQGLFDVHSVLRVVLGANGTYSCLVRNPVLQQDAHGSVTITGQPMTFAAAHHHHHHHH

**Q.** For B2, which “cynoB7-H3 ka” value is on record?
**A.** Its value is 55000 M⁻¹ s⁻¹.

**Q.** And the “cynoB7-H3 kd” value?
**A.** Its value is 1e-05 s⁻¹.

**Q.** Which “cynoB7-H3 ka” value does the source give for B3 here?
**A.** Its value is 540000 M⁻¹ s⁻¹.

**Q.** And the “cynoB7-H3 kd” value?
**A.** Its value is 0.00096 s⁻¹.

**Q.** Which results are given for B4?
**A.** cynoB7-H3 ka: 27000 M⁻¹ s⁻¹; cynoB7-H3 kd: 7.2e-05 s⁻¹

**Q.** Which “cynoB7-H3 ka” value does the source give for B5 here?
**A.** Its value is 380000 M⁻¹ s⁻¹.

**Q.** And the “cynoB7-H3 kd” value?
**A.** Its value is 0.01 s⁻¹.

**Q.** With B6 as the molecule, how does the “cynoB7-H3 ka” value read?
**A.** The value was 160000 M⁻¹ s⁻¹.

**Q.** What about the “cynoB7-H3 kd” value of the same molecule?
**A.** Its value is 0.00026 s⁻¹.

**Q.** What does the source list for B7?
**A.** cynoB7-H3 ka: 1.4e+06 M⁻¹ s⁻¹; cynoB7-H3 kd: 0.28 s⁻¹

Tested on: HCC38 cell line
Assay: Cell cytotoxicity of ADCs in HCC38 cell line
Assay type: cell-based
Conditions: Table 14; CZ conjugates
Experimental: The humanization of chAb18 generated 10 variants (described above in Table 9) that retained binding to human and cyno B7-H3 as assessed by FACS (the method of which is described above in Example 6). These variants were further characterized for binding by SPR and were successfully conjugated to the Bcl-xL inhibitor synthon CZ using Method A (described above) and assessed for cell cytotoxicity as described in Example 7. The parental chAb18 from which the variants were derived was also tested as a comparator. All humanized variants had similar binding properties as assessed by biacore, and retained binding activity to cell surface expressed as conjugates with the CZ synthon. The cytotoxicity of all of the variants as CZ synthons were similar to the chAb18 from which they were derived.
Humanized chAb18 variants were conjugated to the CZ synthon and tested for cytotoxicity in HCC38 cell line.

**Q.** Which IC50 does the source give for B1 here?
**A.** Its IC50 is 0.13 nM.
